Measured values published in patent publication US20250320278A1 (LA JOLLA INSTITUTE FOR IMMUNOLOGY, published 2025).
Where a chain is given by its changes, count along the chain named.

B1: NP3-A7 (antibody, V domains shown)
VH: QIQLVQSGAELVKPGASVKLSCTASGFNIKDTYIHWVRQRPEQGLEWIGRIDPANGDTKYDPKFQDKATLIADTSSNTAYLQLGSLTSEDTAVYYCARYRIYYFDYWGQGTTLTVSS
VL: DIQMTQSPASVPVTPGESVSISCRSSKSLLHSNGNTYVYWFLQRPGQSPRLLIYRMSNLASGVPDRFSGSGSGTAITLRISRVEAEDVGVYSCMQHLEYPLTFGAGTKLEIK
B2: NP3-B12 (antibody, V domains shown)
VH: EVQLQQSGAELMKPGASVKISCKATGYTFSSYWIEWVKQRPGHGLEWIGEFFPGSGNTNYNEKFKGKATFTADTSSNTAYMQLSSLTSEDSAVYYCARRGLYDGYYVRYFDVWGAGTTVTVSS
VL: DIVLTQSPASLAVSLGQRATISCKASQSVDYDGYSYMNWYQQKPGQPPKLLIYAASNLESGIPARFSGSGSGTDFTLNIHPVEEEDAATYYCQQSNADPFTFGGGTKLELK
B3: NP3-E6 (antibody, V domains shown)
VH: EVQLQQSGAELMRPGASVKISCKATGYTFSSYWIEWVKQRPGHGLEWIGEILPGSDNTNYNEKFKGKATLTADTSSNTAYMHLSSLTSEDSAVYSCARRLFLRRYFDVWGAGTTVTVSS
VL: B2 VL with V13L, Y34D, Y53S, S67G, A97E, L110I
B4: NP3-G8 (antibody, V domains shown)
VH: QVQLQQSGPELKKPGETVKISCKASGYTFTDYSMHWVKQAPGKGLKWLGWKNTESGEETFADDFKGRFDFSLETSASTVYLQIKNLKNEDTAAYFCARSGDIYAMDYWGQGTTVTVSS
VL: B2 VL with D1E, I2N, Y34G, N57T, R65G, A97E, F100W, L110I
B5: NP3-C9 (antibody, V domains shown)
VH: QIQLVQSGPELKKPGETVKISCKASGYTFTDYSIHWVKQAPGKDLKWVGWINTETGEPTYADDFEGRFAFSLETSASTAFLQINNLKNEDTATYFCSRGAATGFWGQGTTLTVSS
VL: B2 VL with Y34D, A54V, E84D, S95T, A97E, F100L, G104A
B6: NP3-C11 (antibody, V domains shown)
VH: EVQLVESGGGLVRPGGSLKLSCAASGFTFSDYYMYWVRQTPEKRLEWVATISDGGGYNYYPDSVKGRFTVSRDNAKNNLYLQMSSLKSEDTAMYYCVRDKYDGWGSDFDVWGAGTTVTVSS
VL: DIVMTQSPSLMSTSLGERVTMTCTANSSVSSNYMHWYQQKPGSSPKLWIYSTSNLASGVPARFSGSGSGTSYSLTISNMEAEDAATYYCHQFHRSPRTFGGGTKLEIK

biological target: T1, SARS-CoV-2 N protein, full-length (SARS-CoV-2, UniProt P0DTC9 1-419); assay: Octet (BLI) kinetics
T1 construct: mature; also called SARS-CoV-2 nucleoprotein

Row | Binder | Kd [nM]
1 | B1 | 2.75
2 | B2 | 1
3 | B3 | 0.48
4 | B4 | 2.54
5 | B5 | 0.75

biological target: T2, SARS-CoV-2 N protein oligomerization domain (SARS-CoV-2, UniProt P0DTC9 247-364); assay: Octet (BLI) kinetics
T2 construct: also called N olig. domain; OD

Row | Binder | Kd [nM]
6 | B2 | 0.78
7 | B4 | 1.05

biological target: T1, SARS-CoV-2 N protein, full-length; assay: Octet, KD (nM) heat map

Row | Binder | binding result
8 | B6 | binds

biological target: T2, SARS-CoV-2 N protein oligomerization …; assay: Octet, KD (nM) heat map

Row | Binder | binding result
9 | B6 | no binding
10 | B1 | no binding
11 | B5 | no binding

biological target: SARS-CoV-2 N protein RNA-binding domain (SARS-CoV-2, UniProt P0DTC9 44-180); assay: Octet, KD (nM) heat map

Row | Binder | binding result
12 | B1 | no binding
13 | B2 | no binding
14 | B3 | no binding
15 | B4 | no binding
16 | B5 | no binding
